Earlier results on one substance are cited in PMC3125604.

For the data set, the target named is Prolactin receptor (site 2) (Homo sapiens) (UniProt P16471). Put plainly: surface plasmon resonance.
Sequence of UniProt P16471 (P16471 25-234): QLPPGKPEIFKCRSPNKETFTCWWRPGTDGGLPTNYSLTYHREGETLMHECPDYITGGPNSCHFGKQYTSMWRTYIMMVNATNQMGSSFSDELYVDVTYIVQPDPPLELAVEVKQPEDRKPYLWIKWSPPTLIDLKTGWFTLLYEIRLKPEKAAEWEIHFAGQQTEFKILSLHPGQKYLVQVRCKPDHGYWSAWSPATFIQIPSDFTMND

As for Prolactin (hPRL) (from UniProt P01236), the Kd was 33 µM.
